Laboratory results taken from patent publication US20160158380A1 (INSERM INSTITUT NATIONAL DE LA SANTE ET DE LA RECHERCHE …, published 2016).

How the values were obtained:
murine CLDN1 = target: T1, murine CLDN1 (murine, UniProt O88551 1-211); assay: flow cytometry on SW480 cells transiently transfected with murine CLDN1
T1 construct: whole, on cells; also called mCLDN1
T1 sequence (looked up): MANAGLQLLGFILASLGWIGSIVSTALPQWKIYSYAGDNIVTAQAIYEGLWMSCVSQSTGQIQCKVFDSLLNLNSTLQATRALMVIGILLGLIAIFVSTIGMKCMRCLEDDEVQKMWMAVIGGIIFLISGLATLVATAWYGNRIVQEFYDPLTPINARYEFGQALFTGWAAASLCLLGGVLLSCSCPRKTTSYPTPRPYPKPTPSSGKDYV
Procedure: (§1) Hybridomas or mAbs binding was determined with a FACScan fluorescence-activated cell sorter (Quanta apparatus, Beckman Coulter). Cells were seeded in 25 cm² flasks (2×10⁵ cells/flask). After a 48-hour rest, one million cells were pelleted, Washed with PBS-1% BSA and incubated with hybridomas or mAbs, on ice for 1 h. After washing, an appropriate anti-mouse FITC conjugated monoclonal antibody ((1:60 dilution; (Invitrogen) was added (on ice for 45 mn) to detect the primary antibodies. Direct incubation of cells with the secondary antibody was used for background measurements (negative control).
(§2) After transitory transfection on SW480 cells of human cDNA clone of CLDN8 (sc320974, Origene technologies, USA) and murine cDNA clone of CLDN1 (IRAVp968A105D, LifeScience), we analysed by FACs cross-reactivity of 6F6C3 mAb.

CLDN7 = target: T2, CLDN7 (human, UniProt O95471 1-211); assay: flow cytometry on parental SW480 cells, which express CLDN7
T2 construct: whole, on cells; Species is inferred from the human SW480 cell line
T2 sequence (looked up): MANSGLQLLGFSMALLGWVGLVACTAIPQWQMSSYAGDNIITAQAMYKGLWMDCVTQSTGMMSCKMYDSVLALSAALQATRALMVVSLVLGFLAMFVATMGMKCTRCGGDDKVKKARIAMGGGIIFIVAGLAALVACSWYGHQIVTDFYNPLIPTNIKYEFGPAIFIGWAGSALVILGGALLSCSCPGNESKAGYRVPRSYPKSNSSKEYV

human CLDN8 = target: T3, human CLDN8 (human, UniProt P56748 1-225); assay: flow cytometry on SW480 cells transiently transfected with human CLDN8
T3 construct: whole, on cells
T3 sequence (looked up): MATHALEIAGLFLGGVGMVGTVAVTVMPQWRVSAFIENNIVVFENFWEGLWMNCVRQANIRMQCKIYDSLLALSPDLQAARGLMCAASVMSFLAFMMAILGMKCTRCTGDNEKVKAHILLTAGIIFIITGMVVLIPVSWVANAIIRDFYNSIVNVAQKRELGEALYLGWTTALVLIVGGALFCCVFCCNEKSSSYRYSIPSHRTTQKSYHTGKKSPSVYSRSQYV
Procedure: as §1, §2

binding result (murine CLDN1): no binding (tested: 10 µg/mL)
binding result (CLDN7): no binding (tested: 10 µg/mL)
binding result (human CLDN8): no binding (tested: 10 µg/mL)
B1: 6F6C3 mAb (antibody, V domains shown)
VH: QIQLVQSGPELKKPGETVRISCKASGYTFTTSGMQWLQKMPGKGLKWIGWINTHFGEPKYAEDFKGRFAFSLETSASTAYLQISNLKNEDTATYFCAGAGYYGSRYFDVWGAGTTVTVSS
VL: DIVMTQSQKFMSTSVGDRVSITCKASQNVGTAVAWYQQKPGQSPKLLIYSASNRYTGVPDRFTGSGSGTDFTLTISNMQSEDLADYFCQQYSSYPLTFGGGTKLEIK
notes: Mouse hybridoma monoclonal antibody, IgG3 heavy chain and kappa light chain; also called mAb6F6C3; MAb 6F6C3
